Experimental data: PMC4150798 (Nucleic Acids Research, 2014)
Each block holds one molecule with its values, some of them ahead of it.

How the values were obtained:
[1] = target: CPEB4 RRM1–RRM2 (463–665) (human) (UniProt Q17RY0); assay: native MS
[2] = target: CPEB4 RRM1–RRM2 (463–665) (human) (UniProt Q17RY0); assay: semi-native SDS PAGE
semi-native SDS PAGE = target: the molecule itself; assay: semi-native SDS PAGE

stoichiometry N [1]: 2
maximum dimeric population [2]: < 10%
stoichiometry N [2]: 2
Molecule: CPEB4 RRM1–RRM2 (463–665) (from UniProt Q17RY0 463-665) (domain or fragment)

B1: CPEB4 RRM1 (463–573) (domain or fragment, human, UniProt Q17RY0 463-573, looked up)
chain: NGERVERYSRKVFVGGLPPDIDEDEITASFRRFGPLIVDWPHKAESKSYFPPKGYAFLLFQDESSVQALIDACIEEDGKLYLCVSSPTIKDKPVQIRPWNLSDSDFVMDGS
stoichiometry N (semi-native SDS PAGE): 2
